A word on the stoichiometry N: it is the number of molecules, sites or subunits per partner or assembly.

This passage reports stoichiometry N results from PMC3174958.

The assay concerns the target EPO-hyFc (human). Put plainly: Western blotting; purified EPO-hyFc blotted with anti-EPO and anti-human IgG antibodies; gel conditions not told.

As to EPO-hyFc (Fc fusion), the stoichiometry N was found to be 2.
